Data from patent US20250027068.
Where a chain is given by its changes, count along the chain named.

B1: PRT-81 (protein)
chain: MANQEIRYSEVTPSHVTSVWTKGVTPPADFTQGEDVFHAPYVANQGWYDITKTFNGKDNLLCGAATAGNMLHWWFDQNKEQIENYLKKHPEKQKIMFGDQELLDVRKVINTKDSQTNSALFNYFRDKAFPNLSARRLGVMPDLVLDMFINGYYLNLTKTQTTDVNRTYQTKDKRGGIFDAVFTRGDQSKLLTSRHDFKEKTLKEISDLIKQELTEGKALGLSHTYANVRINHVINLWGADFDSNGNLKAIYVTDSDSNASIGMKKYFVGVNSAGKVAISAKEITEDNIGAQVLGLFTLSTGKDQWNQTN
B2: PRT-75 (protein)
chain: MANQEIRYSEVTPYHVTSVWTKGVTPPAKFTQGEDVFHAPYVANQGWYDITKTFNGKDDLLCGAATAGNMLHWWFDQNKEKIEAYLKKHPEKQKIMFGDQELLDVRKVINTKDDQTNSELFNYFRDKAFPGLSARRLGVMPDLVLDMFINGYRLNVTKTQTTDVNETYQTKDKRGGIFDAVFTRGDQSKLLTSRHDFKEKNLKEISDLIKKELTEGKALGLSHTYANVRINHVINLWGADFDSNGNLKAIYVTDSDSNASIGMKKYFVGVNSAGKVAISAKEIKDDNIGAQVLGLFTLSTGQDIWNQTN
B3: PRT-77 (protein)
chain: MANQEIRYSEVTPYHVTSVWTKGVTPPTNFTQGEDVFHAPYVANQGWYDITKTFNGKDNLLCGAATAGNMLHWWFDQNKEEIERYLKKHPEKQKIMFGDQELLDVRKVINTKDDQKNSELFNYFRDKAFPGLSARRLGVMPDLVLDMFINGYYLNVGKTQTTDVNRTYQEKDKRGGIFDAVFTRGDQSKLLTSRHDFKEKNLKEISDLIKQELTEGKALGLSHTYANVRINHVINLWGADFDSNGNLEAIYVTDSDSNASIGMKKYFVGVNSAGKVAISAKEIEEDNIGAQVLGLFTLSTGQDIWNQTN
B4: PRT-6 (protein)
chain: MANQEIRYSEVTPYHVTSVWTKGVTPPANFTQGEDVFHAPYVANQGWYDITKTFNGKDDLLCGAATAGNMLHWWFDQNKEQIERYLKEHPEKQKINFNGEQMFDVKEAIDTKNSQLDSKLFEYFKEKAFPYLSTKHLGVFPDHVIDMFINGYRLSLTNHGPTPVKEGSKDPRGGIFDAVFTRGDQSKLLTSRHDFKEKNLKEISDLIKKELTEGKALGLSHTYANVRINHVINLWGADFDSNGNLKAIYVTDSDSNASIGMKKYFVGVNSAGKVAISAKEIEGDNIGAQVLGLFTLSTGQDIWNQTN
B5: PRT-8 (protein)
chain: B4 chain with A28T, V42I, E80D, I145L, K209Q, K246E, E282K, G283D
B6: PRT-9 (protein)
chain: B4 chain with V11E, N199T, G218A, E282K, G283E, T298S
B7: PRT-7 (protein)
chain: B4 chain with V11E, E80D, E88K, N113D, L116T, E282K, G283E, N304E
B8: PRT-76 (protein)
chain: MANQEIRYSEVTPYHITSVWTKGVTPPAKFTQGEDVFHAPYVANQGWYDITKTFNGKDDLLCGAATAGNMLHWWFDQNKEEIEAYLKKHPEKQKIMFGDQELLDVRKVINTKDSQTNSALFNYFKDKAFPNLSARRLGVMPDLVLDMFINGYYLNVYKTQTTDVNRTYQTKDRRGGIFDAVFTRGDQSKLLTERHDFKEKTLKEISDLIKQELTEGKALGLSHTYANVRINHVINLWGADFDSNGNLEAIYVTDSDSNASIGMKKYFVGVNSAGKVAISAKEIKEDNIGAQVLGLFTLSTGQDIWNQTN
B9: PRT-78 (protein)
chain: MANQEIRYSEETPYHVTSVWTKGVTPPADFTQGEDVFHAPYVANQGWYDITKTFNGKDDLLCGAATAGNMLHWWFDQNKEYIEAYLKKHPEKQKIMFGDQELLDVRKAINTKGSQKNSELFNYFRDKAFPNLSARRLGVMPDLVLDMFINGYYLNVTKTQTTDVNRTYQEKDKRGGIFDAVFTRGDQSKLLTSRHDFKEKGLKEISDLIKQELTEGKALGLSHTYANVRINHVINLWGADFDSDGNLKAIYVTDSDSNASIGMKKYFVGVNSAGKVAISAKEIKEDNIGAQVLGLFTLSTGQDIWNQTN
B10: PRT-82 (protein)
chain: MANQEIRYSEVTPSTITSVWTKGVTPPAQFIQNEDVFHAPYVANQGWYDITKTFNGKDDLLCGAATAGNMLHWWFDQNKEEIEAYLKKHPEKQKIMFGDQELLDVRKVINTKDDQTNSALFNYFKDKAFPNLSARRLGVMPDLVLDMFINGYYLNVGKTQTTDVNRTYQNKDRRGGIFDAVFTRGDQSKLLTARHDFKEKNLNEISDLIKQELTEGKALALSHTYANVSINHVINLWGADFDANGNLEAIYVTDSDSNASIGMKKYFVGVNSAGKVAISAKEIEEDNIGAQVLGLFTLSTGQDIWNKTN
B11: PRT-80 (protein)
chain: MANQEIRYSEVTPKHITSVWTKGVTPPTQFIQGEDVFHAPYKANQGWYDITKTFNGKDDLLCGAATAGNMLHWWFDQNKEEIEAYLKKHPEKQKIMFGDQELLDVRKAINTKDDQTNSELFNYFRDKAFPNLSARRLGVMPDHVLDMFINGYYLNVNKTQTTDVNRTYQEKDPRGGIFDAVFTRGDQSKLLTSRHDFKEKTLKEISDLIKQELTEGKALGLSHTYANVRINHVINLWGADFDSNGNLKAIYVTDSDSDASIGMKKYFVGVNSAGKVAISAKEIKGDNIGAQVLGLFTLSTGQDIWNQTN
B12: PRT-83 (protein)
chain: MANQEIRYSEETPYHVTSVWTKGVTPPEKFTQGEDVFHAPYVANQGWYDITKTFNGKDDLLCGAATAGNMLHWWFDQNKDQIEAYLSKHPEKQKIMFGDQELLDVRKAINTKDSQTNSELFNYFRDKAFPNLSARRLGVMPDLVLDMFINGYRLNVTKTQTTDVNETYQEKDKRGGIFDAVFTRGDQSKLLTSRHDFKEKTLNEISDLIKKELTEGKALGISHTYANVRINHVINLWGADFNSEGNLEAIYVTDSDSNASIGMKKYFVGVNSAGKVAISAKEIEEENIGAQVLGLFTLSTGQDIWQQTN
B13: PRT-111 (protein)
chain: MRNATEAYAKEVPHQITSVWTKGVTPPTPEQFRYNNEDVFHAPYLAHQGWYDITKTFNGKDNLLCGAATAGNMLHWWFDQNKTEIEAYLKKHPEKQKIIFNNQELFDLKAAIDTKDSQTNSQLFNYFRDKAFPNLSARQLGVMPDLVLDMFINGYYLNVFKTQSTDVNRPYQDKDKRGGIFDAVFTRGDQTTLLTNRHDLKNKGLNDISTLIKQELTEGKALALSHTYANVSISHVINLWGADFNAEGNLEAIYVTDSDANASIGMKKYFVGINSAGHVAISAKKIEGENIGAQVLGLFTLSSGKDIWQKLS
B14: PRT-79 (protein)
chain: MANQEIRYSEVTPKTITSVWTKGVTPPAKFTQNEDVFHAPYVANQGWYDITKTFNGKDDLLCGAATAGNMLHWWFDQNKEQIEAYLKKHPEKQKIMFGDQELLDVRKVINTKDDQTNSELFNYFKDKAFPNLSARRLGVMPDLVLDMFINGYRLNVGKTQTTDVNRTYQDKDPRGGIFDAVFTRGDQSKLLTSRHDFKEKNLKEISDLIKQELTEGKALGLSHTYANVRINHVINLWGADFDSEGNLEAIYVTDSDSNASIGMKKYFVGVNSAGKVAISAKEIEEDNIGAQVLGLFTLSTGQDIWEQTN

Biological target: pooled human IgG

| Protein | Enzyme Activity Endpoint Assay (purified): Fab′2 [ng/µL] | Enzyme Activity Endpoint Assay (purified): Fc [ng/µL] | Enzyme Activity Endpoint Assay (purified): IgG [ng/µL] | Enzyme Activity Endpoint Assay (purified): scIgG [ng/µL] | Enzyme Activity Endpoint Assay: Fab′2 [ng/µL] | Enzyme Activity Endpoint Assay: Fc [ng/µL] | Enzyme Activity Endpoint Assay: IgG [ng/µL] | Enzyme Activity Endpoint Assay: scIgG [ng/µL] | Enzyme Activity Endpoint Assay (purified): Fab'2 [ng/µL] |
| --- | --- | --- | --- | --- | --- | --- | --- | --- | --- |
| B1 | 14 | 67 | 30 | 56 |  |  |  |  |  |
| B2 | 12 | 76 | 8 | 54 |  |  |  |  |  |
| B3 | 33 | 104 | 14 | 17 |  |  |  |  |  |
| B4 |  |  |  |  | 49 | 129 | 16 | 15 |  |
| B5 |  |  |  |  | 50 | 127 | 16 | 16 |  |
| B6 |  |  |  |  | 39 | 103 | 21 | 32 |  |
| B7 |  |  |  |  | 50 | 137 | 18 | 16 |  |
| B8 | 20 | 78 | 37 | 38 |  |  |  |  |  |
| B9 | 34 | 94 | 21 | 11 |  |  |  |  |  |
| B10 | 9 | 67 | 15 | 60 |  |  |  |  |  |
| B11 | 15 | 70 | 29 | 34 |  |  |  |  |  |
| B12 | 0 | 44 | 42 | 40 |  |  |  |  |  |
| B13 |  | 133 | 26 | 0 |  |  |  |  | 328 |
| B14 | 0 | 44 | 72 | 38 |  |  |  |  |  |
